According to the nanobody polyreactivity screen of Harvey et al. (2022):

Test: yeast display, Sf9 membrane polyspecificity reagent, FACS + sequencing; frameworks hold sequencing errors
Outline: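 Nanobodies came from a synthetic yeast display library in Saccharomyces cerevisiae BJ5465, induced with galactose for 36–48 hours and stained for 1 hour at 4 °C with 10% biotinylated, detergent-solubilized Sf9 membrane reagent. Cells were enriched on streptavidin microbeads and then FACS-sorted, with low and high (top ~1%) gates set on anti-HA fluorescence for expression and streptavidin fluorescence for reagent binding. Each polyreactivity label reflects the gate a clone came from. Genes were amplified by colony PCR, sequenced by MiSeq 2 × 250 and filtered by CDR length.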

| Sequence | polyreactivity (PSR sort gate) |
| --- | --- |
| QVQLLESGGGLVQAGGSLRLICSASGRTFSGYALGWYRHSPGRERELVAAITSSGSSKYYADSVKGRFTISRDKAKYTVYLQMKSLKPEDTAVYYCAATPQAHSEPYFYQRKYDFWGEGTQVTVSS | low polyreactivity |
| QVQLLESGGGLVQAGGSLRLRCAASGFIISRYAMAWYRQAPGKEMELVAGITGSGGSTYYADSVKGRFTISRDNAKNTVYLQMNSLKPEDTAVYYCAAGRRGGALLFYYWGQGTLVTVSS | high polyreactivity |
| QVQLLESGGGLVQAGGSLRLSCAASGFIFDESAKGRYRQAPGKERQLVAAISWSGSRTYYADSVKGRFTISRDNAKNTVYLQMNSLKPEDTAVYYCAKVTGVGAGRRNYWGQGTQVTVSS | low polyreactivity |
| QVQLLESGGGLVQAGGSLRLSCAASGFIFNHYAMGWYRQAPGKEREFVAAISWSGGSTYYADSVKGRFTISRDNAKNTVYLQMNSLKPEDTAVYYCAASYNGLWHGDYDYWGQGTQVTVSS | low polyreactivity |
| QVQLLESGGGLVQAGGSLRLSCAASGFTFEDNAMGWYRKAPGKERELVAADGTNYADSVKGRFTISRDNAKNTVYLQMNSLKPEDTAVYYCARYARQVTPLSIGLYDYWGQGTQVTVSS | low polyreactivity |
| QVQLLESGGGLVQAGGSLRLSCAASGIIFRVYAMGWYRQAPGKERELVATITWSGGSTFYADSVKGRFTISRDNAKNTVYLQMNSLKPEDTAVYYCAKRGYVRSGLGRPYADDYWGQGTQVTVSS | low polyreactivity |
| QVQLLESGGGLVQAGGSLRLSCAASGITFQLYAMGWYRQAPGKEREFVAAINGRSGRTYYADSVKGRFTISRDNAKNTVYLHMNSLKPEDTAVYYCAKTSNGYGSGLPMYYWGQGTQVTVSS | high polyreactivity |
| QVQLLESGGGLVQAGGSLRLSCAASGLTFNTYAMGWYIQAPGKERELVAAISRGGGSTYYADSVKGRFTISRDNAKNTVYLQMNSLKPEDTAVYYCNAEKRASYLLYDYWGQGTQVTVSS | high polyreactivity |
| QVQLLESGGGLVQAGGSLRLSCAASGNIFMDYAMGWYRHAPGKERELVAAITSRVDDTYYADSVKGRFTISRDNAKNTVYLQMNSLKPEDTAVYYCAADYSVTLRIGGYYWFYAFDYWGQGTQVTVSS | low polyreactivity |
| QVQLLESGGGLVQAGGSLRLSCAASGRIFGRYAMGWYRHAPGKERELVAAISQSGARTYYADSVKGRFTFSRDNAKNTVYLQMNSLKPEDTAVYYCAARYKALYDYWGQGTQVTVSS | high polyreactivity |
| QVQLLESGGGLVQAGGSLRLSCAASGRIFGSNAMGWYRQAPGKERELVAAITRGGSTNYADSVKGRFTISRDNAKNTVYLQMNSLKPEDTAVYYCAVRWYRKYNYWGQGTQVTVSS | high polyreactivity |
| QVQLLESGGGLVQAGGSLRLSCAASGRIFKFNAMGWYRQAPGKERDLVAAISKRGGSTYYADSVKGRFTISRDNAKNTVYLQMISLKPEDTAVYYCAADRSPYGGDYDYWGQGTQVTVSS | high polyreactivity |
| QVQLLESGGGLVQAGGSLRLSCAASGRTFQRNAMGWYRQAPGKETELVATITTNGGSTYYADSVKGRFTISRDNAKNTVYLQMNSLKPEDTAVYYCAAPFNPRVRTLRSVRMDYWGQGTQVTVSS | low polyreactivity |
| QVQLLESGGGLVQAGGSLRLSCAASGRTFTTYTMGWYRQAPGKERELVAAIRSGGRTYYADSVKGRFTISRDNAKNTVYLQMNSLKPEDTAVYYCNARDCVRNVYAYAGRQYDYWGQGTQVTVSS | low polyreactivity |
| QVQLLESGGGLVQAGGSLRLSCAASGRTLDRNAMGWYRQAPGKERELVAAISRRTGSTYYADSVKGRFTISRDNAKNTVYLQMNSLKPEDTAVYYCNKVTYGDFDYWGQGTQVTVSS | high polyreactivity |
| QVQLLESGGGLVQAGGSLRLSCAASGSIFFYYAMGWDRQAPGKERELVATITSGGSTSYADSVKGRFTISRDNAKNTVYLQMNSLKPEDTAVYYCAARKVTKSTYNYWGQGTQVTVSS | low polyreactivity |
| QVQLLESGGGLVQAGGSLRLSCAASGSIFRYNDMGWYRKAPGKETELVATITSGTNTYYADSVKGRFTISRDNAQNTVYLQMNRLKPEDTAVYYCAKSYNAWDGRTFEEMNYWGQGTQVTVSS | low polyreactivity |
| QVQLLESGGGLVQAGGSLRLSCAASGSIFVFYAMGWYRQAPGKERELVAAISSSGGSTYYADTVKGRITISRDNAKNTVYLQMNSLKPEDTAVYYCAVRRSTGSRSPPMYYWGQGTQVTVSS | high polyreactivity |
| QVQLLESGGGLVQAGGSLRLSCAASGSILYPYAMGWYRQAPGTERELVAVITKSGGGTYYADSVKGRFTISRDNAKNTVYLQMNSLKPEDTAVYYCNRVWLRGAPHMEYWGQGTQVTVSS | high polyreactivity |
| QVQLLESGGGLVQAGGSLRLSCAASGSIYVYNAMAWYRQAPGKERELVAAISRGGRTYADSVKGRFTISRDNAKNTVYLQMNSLKPEDTAVYYCAAQGYYRSWYSRQGHYDFWGQGTQVTVSS | high polyreactivity |
| QVQLLESGGGLVQAGGSLRLSCAASGSTCGRNAMGWYRQAPGKERELVAAITSTGSTYYADSVKGRFTISRDNAKNTFYLQMNSLNPEDTAVYYCAAEARPYLFPAYKYPYYSWGQGTQVTVSS | low polyreactivity |
| QVQLLESGGGLVQAGGSLRLSCAASGSTFDRYAMGWNRQAPGKEREFVAAITWGGGSTYYADSVKGRFTISRDNAKNTVYLKFNSLKPEDTAVYYCATRYGASFGYWVQGTQVTVSS | low polyreactivity |

| Sequence | polyreactivity (PSR sort gate) |
| --- | --- |
| QVQLLESGGGLVQAGGSLRLSCAASGSTFGFYAMGCYRPAPGKERELVAAISKSGDITYYADSVKGRFTNSLDNAKNTVYLQMNSLKPEDTAVYYCADRYGYLDNSIYVYWGQGTQVTVSS | high polyreactivity |
| QVQLLESGGGLVQAGGSLRLSCAASGSTFINNAMGWYRQAPGKERELVAAISGNADRTYYADSVKGRFTISRDYAKNTVYLQMISLKPEDTAVYYCNALSLLSDGAASVDQVTFDYWGQGTQVTVSS | low polyreactivity |
| QVQLLESGGGLVQAGGSLRLSCAASGSTFLANAMGWYRQAPGKERDLVAAISSSGGSTYYADSVKWRFTISRDNAKNTVYVQMNSLKPEDTAVYYCAAATASRYRLWGGYYYWGQGTQVTVSS | low polyreactivity |
| QVQLLESGGGLVQAGGSLRLSCAASGSTFPRYVMGWYRQAPGKERELVAAISSSSGRTFYADSVKGRFTISRDNAKNTVYLQMNSLKPEDTSVYYCAARTSFNVHYWGQGTQVTVSS | high polyreactivity |
| QVQLLESGGGLVQAGGSLRLSCAASGSTFYSYAMGGYRQAPGKERELVAAISSSSGSTYYADSVKGRFTISRDNANNSVYLQMNSLKPEDTAVYYCNRGRRYSHKYDYWGQGTQVTVSS | high polyreactivity |
| QVQLLESGGGLVQAGGSLRLSCAASGYTFAYYAMGWYRQAPGKERELVATISWSDGSTYYADSVKGRFTISRDNAKNTVYLQMNSLKPEDTAVYYCAADTPGYYTYYGFGYWGQGTQVTVSS | low polyreactivity |
| QVQLLESGGGLVQAGGSLRLSCAASGYTFRYYTMGWYRQAPGKERELVAAISGSGGSTYYADSVKGRFTISRDTAKNTVYLQMNSLKPEDTAVYYCNRFYSTSRITQYEFDYWGQGTQVTVSS | high polyreactivity |
| QVQLLESGGGLVQAGGSLRLSCAASGYTLRKYAMGWYRQAPGKERELVAAIRTSGGSTYYADSVKGRFTISRDNAKNTVYLQMNSLKPEDTAVYYCAAEWIFSYTWEYDYWGQGTQVTVSS | low polyreactivity |
| QVQLLESGGGLVQAGGSLRLSCAASVSTFLYYTMGWYRQATGKQRELVAAISDDGSTSYADSVKGRFTISRDNAKITVYLQMNSLKPEDTAVYYCAARFYHNRYTFYDFYTLYPYYYWGQGTQVTVSS | low polyreactivity |
| QVQLLESGGGLVQAGGSLRLSCKARGSILGDRMSWYRQAPVKEHELVATIYDGGITYYADSMKGRFTISRDNAKNTVYLQMNRLRPEDTAVYYCGASFEGYRYHVYCGQGTQVTVSS | low polyreactivity |
| QVQLLESGGGLVQAGGSLRLSCMASGSILGDRMSWYRQAPGKEHELVATIYDGGITYYADSMKGRFTISRDNAKNTVYLQMNSLRPEDTAVYYCGASFEGYGYHVYCGQGTQVTVSS | low polyreactivity |
| QVQLLESGGGLVQAGGSLRLSFAASGYIFSVNAMGWYRQAPGQERELVATIRTDGTTNYADSVNGRFTISRDNAKNTVYLKMNSLKPEDTAVYYCATDSGWSTYDYWGQGTQVTVSS | high polyreactivity |
| QVQLLESGGGLVQAGGSLRLSFASSGSIFHPYAMGWYRQAPGKERELVAAITSGGSTYYADSVKGLFTISRDNAKNTDLLQMNSLNPEDNAVYYCAKDFDIYYSKYDYWGQGTQVTVSS | low polyreactivity |
| QVQLLESGGGLVQAGGSLRLSGAASGRIFRWYAMGWYRQAPGKEREFVAAITSSGGSTYYADSVMGRFTISRDNAKNTVYLQMNSLKPDDTAGYYCAALVYLGGSYSRGYDWGQGTQVTVSS | high polyreactivity |
| QVQLLESGGGLVQAGGSLRLTCAASGNIFISYAMAWYRQAPGKERELVAAISRSGGSTYYADSVKGRFTISRDNAKNTVYLQMNSLKPEDTAVYYCAAYIGPGRYGSWGQGTQVTVSS | high polyreactivity |
| QVQLLESGGGLVQAGGSLRLTCAASVIIFYPYAMVWYRQAPGKERELVAAISIGGGSTYYADSVKGRFTISRDNAKNTVYLQMNSLKPEDTAVYYCAAGTPYGILGYYYWGQGTQVTVSS | low polyreactivity |
| QVQLLESGGGLVQAGGSLRLTCMASGSILGDRMSWYRQARGKEHELVATIYDGGITYYADSMKGRFTISRDNAKNTVYLQLNSLRPEDTAVYYCGASFEGYRYHVYCGQGTQVTVSS | low polyreactivity |
| QVQLLESGGGLVQAGGSRRLSCAASGSTFYGYAMGWYRQAPGKEREFVAAITTSGGSTYYADSVKGRFTISRDNAKNTVYLQMNSLKPEDTAVYYCAADAPSWYDRQYDYWGQGTQVTVSS | low polyreactivity |
| QVQLLESGGGLVQAGGTLRLSCAASGSIFFRNAMGWYRQAPGKERELVAAITWNGGSTYYADSVKGRFTISRDNAKNTVYLQMNSLKPDDTAVYYCNKYYYYRDSGYWGQGTQVTVSS | high polyreactivity |
| QVQLLESGGGLVQAGGTLRLSCAASGSTFRYNAMGWYRQAPGKERELVAAITSGGRTNYADSVKGRFTISRDNAKYTFYLQMNSLKPEDTGVYYCAARRYCRNWHNVYWGQGTQVTVSS | high polyreactivity |
| QVQLLESGGGLVQAGRSLRLSCSASGRTLVYNAMGWYRQAPGKERELVAGITNGGSTNYADSVKGRFTISRDTAKNTVYLQMNSLKPEDTAVYYCAADSRVYPYYFGDFGYWGQGTQVTVSS | low polyreactivity |
